Values of other authors as cited in paper PMC4404502.

Molecular target: Asp11 (position 11, …)
Experiment: fluorescence
Conditions: membrane-inserted helix

B1: pL(D11) poly-Leu transmembrane model peptide (synthetic construct) (peptide)
chain: KKGLLLLLLLDLWLLLLLLLLLKKA
For B1, the pKa is given as 8.7.
